Reference: publication PMC10014863, “Structural analysis of the housecleaning nucleoside triphosphate pyrophosphohydrolase MazG from Mycobacterium tuberculosis” (Frontiers in Microbiology, 2023)

Biological target: the molecule itself
Assay: SEC

B1: Mycobacterium tuberculosis MazG (Mtb-MazG), full-length wild type (enzyme)
chain: MIVVLVDPRRPTLVPVEAIEFLRGEVQYTEEMPVAVPWSLPAARSAHAGNDAPVLLSSDPNHPAVITRLAAGARLISAPDSQRGERLVDAVAMMDKLRTAGPWESEQTHDSLRRYLLEETYELLDAVRSGSVDQLREELGDLLLQVLFHARIAEDASQSPFTIDDVADTLMRKLGNRAPGVLAGESISLEDQLAQWEAAKASEKARKSVADDVHTGQPALALAQKVIQRAQKAGLPAHLIPDEITSVSVSADVDAENTLRTAVLDFIDRLRCAERAIAVARRGSNVAEQLDVTPLGVITEQEWLAHWPTAVNDSRGGSKKRKGMR
notes: also called WT MazG; full-length MazG
- stoichiometry N: 2
